Measured values taken from patent US20170304435A1 (GOVERNING COUNCIL OF THE UNIVERSITY OF TORONTO, published 2017).

Columns and labels:
[1] = target: T1, TRAF2, endogenous in Jurkat cells (UniProt Q12933 2-501, limits assumed); experiment: FLAG-TIFA immunoprecipitation from Jurkat cells, immunoblot for TRAF2
T1 construct: Endogenous protein probed by immunoblot with rabbit anti-TRAF2 (sc-876)
T1 sequence (looked up): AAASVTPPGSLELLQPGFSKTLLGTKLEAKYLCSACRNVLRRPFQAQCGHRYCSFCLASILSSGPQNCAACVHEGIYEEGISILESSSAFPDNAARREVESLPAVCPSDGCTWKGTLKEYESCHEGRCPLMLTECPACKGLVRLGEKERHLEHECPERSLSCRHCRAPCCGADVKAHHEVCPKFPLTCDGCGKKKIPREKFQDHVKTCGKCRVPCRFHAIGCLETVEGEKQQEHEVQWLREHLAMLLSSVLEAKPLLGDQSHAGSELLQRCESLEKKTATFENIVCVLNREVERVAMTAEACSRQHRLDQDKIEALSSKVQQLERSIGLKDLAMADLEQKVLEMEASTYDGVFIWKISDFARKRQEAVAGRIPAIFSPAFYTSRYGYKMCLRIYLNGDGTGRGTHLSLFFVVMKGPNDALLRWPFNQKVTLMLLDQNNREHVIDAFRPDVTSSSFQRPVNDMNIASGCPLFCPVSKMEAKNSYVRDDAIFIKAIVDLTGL
Experimental: Briefly, cells were lysed in 50 mM Hepes-KOH pH 8.0, 100 mM KCl, 2 mM EDTA, 0.1% NP40, 10% glycerol. Soluble cell lysates were pre-cleared for 2 hr with mouse IgG agarose (Sigma) and immunoprecipitated overnight at 4° C. Proteins eluted using 0.5 M NH₄OH pH 11 (for mass-spectrometry), or 3× FLAG-peptide (Sigma) (immunoblot analysis). […] Data were analyzed by Scaffold PTM (Proteome).

[2] = target: the molecule itself; experiment: native PAGE and FLAG immunoblot, HBP-treated Jurkat cells
[3] = target: the molecule itself; experiment: confocal microscopy of TIFA aggregates in HBP-treated 293T cells
[4] = target: T2, TRAF6 (ubiquitin ligase, tumor necrosis factor receptor-associated factor 6), endogenous in Jurkat or 293T … (UniProt Q9Y4K3 1-522); experiment: FLAG immunoprecipitation from HBP-treated Jurkat cells, immunoblot for TRAF6
T2 construct: Endogenous protein detected by immunoblot or immunostaining with mouse anti-TRAF6 (sc-8409)
T2 sequence (looked up): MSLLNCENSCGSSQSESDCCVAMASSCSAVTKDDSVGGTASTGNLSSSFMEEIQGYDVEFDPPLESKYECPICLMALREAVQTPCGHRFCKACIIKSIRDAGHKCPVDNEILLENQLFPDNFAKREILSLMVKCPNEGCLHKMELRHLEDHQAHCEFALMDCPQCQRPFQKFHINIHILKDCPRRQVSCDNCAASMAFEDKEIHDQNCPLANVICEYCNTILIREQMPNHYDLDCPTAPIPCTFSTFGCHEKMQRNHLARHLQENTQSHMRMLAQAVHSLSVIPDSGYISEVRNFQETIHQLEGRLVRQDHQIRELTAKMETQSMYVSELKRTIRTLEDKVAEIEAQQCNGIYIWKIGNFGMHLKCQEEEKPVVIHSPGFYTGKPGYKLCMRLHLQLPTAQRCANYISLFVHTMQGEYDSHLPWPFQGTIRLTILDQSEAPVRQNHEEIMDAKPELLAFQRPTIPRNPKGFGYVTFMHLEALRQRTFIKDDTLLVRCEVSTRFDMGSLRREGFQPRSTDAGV
Experimental: Briefly, cells were lysed in 50 mM Hepes-KOH pH 8.0, 100 mM KCl, 2 mM EDTA, 0.1% NP40, 10% glycerol. Soluble cell lysates were pre-cleared for 2 hr with mouse IgG agarose (Sigma) and immunoprecipitated overnight at 4° C. Proteins eluted using 0.5 M NH₄OH pH 11 (for mass-spectrometry), or 3× FLAG-peptide (Sigma) (immunoblot analysis).

[5] = target: the molecule itself; experiment: confocal microscopy of FLAG-TIFA aggregates in HBP-treated 293T cells

Row | Binder | binding result [1] | binding result [2] | binding result [3] | binding result [4] | binding result [5]
1 | FLAG-TIFA wild type (TRAF-interacting forkhead associated protein A with one N-terminal FLAG sequence), from HBP-treated cells (other, not shown: small tags and cut ends, phospho-threonine 9 (pT9), found only after treatment with HBP, Forms oligomers after HBP; also called FLAG-TIFA wildtype (wt); Wt) MTSFEDADTEETVTCLQMTVYHPGQLQCGIFQSISFNREKLPSSEVVKFGRNSNICHYTFQDKQVSRVQFSLQLFKKFNSSVLSFEIKNMSKKTNLIVDSRELGYLNKMDLPYRCMVRFGEYQFLMEKEDGESLEFFETQFILSPRSLLQENNWPPHRPIPEYGTYSLCSSQSSSPTEMDENES | no binding | binds |  |  | 
2 | FLAG-TIFA T9A (other, not shown: small tags and cut ends, Point mutant of FLAG-TIFA made with QuickChange II; stably expressed with endogenous TIFA knocked down) MTSFEDADAEETVTCLQMTVYHPGQLQCGIFQSISFNREKLPSSEVVKFGRNSNICHYTFQDKQVSRVQFSLQLFKKFNSSVLSFEIKNMSKKTNLIVDSRELGYLNKMDLPYRCMVRFGEYQFLMEKEDGESLEFFETQFILSPRSLLQENNWPPHRPIPEYGTYSLCSSQSSSPTEMDENES |  |  | no binding | no binding | 
3 | FLAG-TIFA G50E/S66A (mutations in the FHA domain) (other, not shown: small tags and cut ends, Double point mutant of FLAG-TIFA; stably expressed with endogenous TIFA knocked down; also called FHA mutant) MTSFEDADTEETVTCLQMTVYHPGQLQCGIFQSISFNREKLPSSEVVKFERNSNICHYTFQDKQVARVQFSLQLFKKFNSSVLSFEIKNMSKKTNLIVDSRELGYLNKMDLPYRCMVRFGEYQFLMEKEDGESLEFFETQFILSPRSLLQENNWPPHRPIPEYGTYSLCSSQSSSPTEMDENES |  |  |  | no binding | 
4 | FLAG-TIFA E178A (mutation in the TRAF6 binding site) (other, not shown: small tags and cut ends, Point mutant of FLAG-TIFA; stably expressed with endogenous TIFA knocked down; also called TRAF6 (E178A) mutant) MTSFEDADTEETVTCLQMTVYHPGQLQCGIFQSISFNREKLPSSEVVKFGRNSNICHYTFQDKQVSRVQFSLQLFKKFNSSVLSFEIKNMSKKTNLIVDSRELGYLNKMDLPYRCMVRFGEYQFLMEKEDGESLEFFETQFILSPRSLLQENNWPPHRPIPEYGTYSLCSSQSSSPTAMDENES |  |  |  | no binding | binds
